Results as given in patent publication CN112646036A.

Molecular target: CD23的多肽抗原 (synthetic CD23 peptide antigens of SEQ ID NO:1-3)
Assay: indirect ELISA; peptide antigens of SEQ ID NO:1-3 on the 96-well plate at varied molar concentrations, antibody at 0.125 μg/mL (about 0.83 nmol/L), HRP goat anti-mouse IgG, OD450; value given at a peptide concentration of 0.56 μmol/L

Kd: 700 nM
B1: 365A2D1抗CD23单克隆抗体 (anti-CD23 monoclonal antibody secreted by mouse hybridoma cell line 365A2D1) (antibody, V domains shown)
VH: EVQLQESGGGLVQPKGSLKLSCAASGYTFNTYAMHWVRQAPGKGLEWVARIRSKSNNYEPYYADSVKDRFTISRDDSQSILYLQMNNLKTEDTAMYYCVREYYDAMDYWGQGTSVTVSS
VL: EIVMTQAAPSVSVTPGESVSISCRSSQSLLHSNGNTYLYWFLQRPGQSPHLLISRVSNLASGVPDRFSGSGSGTAFTLRISRVEAEDVGVYYCMQGLEFPWTFGGGTKLEIK
